In one experiment the target is MKLP1 (UniProt Q02241). In words: GFP-Trap pull-down, Flag western blot. Background: A western blot detects proteins with antibodies after separation by electrophoresis.
The target of experiment [1] is T1, CPC mini-complex (Survivin full-length, Borealin full-length and INCENP 1–57) (UniProt Q53HL2 1-280; O15392 1-142; Q9NQS7 1-57).
T1 construct: Borealin, full-length, TEV-cleavable His-tagged, pETM vector; Survivin, full-length, 3C-cleavable GFP-tagged, pRSET vector; INCENP residues 1–57 (methods; the results say the first 58 amino acids), untagged, pMCNcs vector; Results call the INCENP piece INCENP 1–58, methods 1–57; also called mini-CPC; copies: + +
T1 sequence (Q53HL2 whole entry, chain 1 of 3, the tested form may be a part): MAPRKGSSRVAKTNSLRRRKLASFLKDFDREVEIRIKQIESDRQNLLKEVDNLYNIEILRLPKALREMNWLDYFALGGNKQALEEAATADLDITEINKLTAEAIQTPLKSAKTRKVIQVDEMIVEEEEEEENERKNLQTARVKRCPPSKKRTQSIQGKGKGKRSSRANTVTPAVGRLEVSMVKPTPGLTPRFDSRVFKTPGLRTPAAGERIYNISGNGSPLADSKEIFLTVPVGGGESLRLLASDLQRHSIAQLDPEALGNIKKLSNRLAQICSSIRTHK
T1 sequence (O15392 whole entry, chain 2 of 3, the tested form may be a part): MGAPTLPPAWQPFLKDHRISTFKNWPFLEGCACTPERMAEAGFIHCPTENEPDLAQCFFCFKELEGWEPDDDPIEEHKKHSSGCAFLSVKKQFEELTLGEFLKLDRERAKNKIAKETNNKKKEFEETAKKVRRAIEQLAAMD
T1 sequence (Q9NQS7 1-57, chain 3 of 3): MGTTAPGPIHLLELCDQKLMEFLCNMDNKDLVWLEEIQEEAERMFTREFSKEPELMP
In words: atomic force microscopy; purified proteins on mica surfaces without lipid bilayers, imaged under fluid at room temperature. As to conditions: both partners purified.

As to “CHMP4C (from UniProt Q96CF2) StripleA (S210A, S214A, S215A)”, the “binding against the reference” value with MKLP1 (reference: S210A, sites S214,S215) was “stronger”; with MKLP1 (reference: wild type, sites S210,S214,S215) it was “stronger”.

B1: CHMP4C (purified recombinant, full-length) (natural protein, human, UniProt Q96CF2 1-233, looked up)
chain: MSKLGKFFKGGGSSKSRAAPSPQEALVRLRETEEMLGKKQEYLENRIQREIALAKKHGTQNKRAALQALKRKKRFEKQLTQIDGTLSTIEFQREALENSHTNTEVLRNMGFAAKAMKSVHENMDLNKIDDLMQEITEQQDIAQEISEAFSQRVGFGDDFDEDELMAELEELEQEELNKKMTNIRLPNVPSSSLPAQPNRKPGMSSTARRSRAASSQRAEEEDDDIKQLAAWAT
notes: CHMP4C, human, full-length ORF cloned into pET-His6-msfGFP as a TEV-cleavable His-tagged protein; also called His6-GFP::CHMP4C; purified CHMP4C; source: E. coli BL21 Gold, purified (Ni-NTA, TEV cleavage, Superdex 200); not shown: His6, N-terminal, cleaved
As for B1, the binding result in experiment [1] was “binds”.
